From article PMC5430633, “Phosphorylation of the mitochondrial autophagy receptor Nix enhances its interaction with LC3 proteins” (Scientific Reports, 2017) come the findings set out here.

Common to all, as to details: both partners purified
One test concerns the target LC3B R11A (for ITC) (human, UniProt Q9GZQ8 1-120, R11A). Briefly: ITC; 25 °C, VP-ITC; peptides 0.31 mM titrated into 0.018 mM LC3B proteins in 25 steps; 40 mM Na2HPO4, 80 mM NaCl, pH 7.0; one-site binding model.
Test [1] deals with T1, LC3B wild type (for ITC and NMR) (human, UniProt Q9GZQ8 1-120). The description is as above.
In the next test the target is LC3B K51A (for ITC) (human, UniProt Q9GZQ8 1-120, K51A). Described as above.
The target in the next test is LC3B K49A (for ITC) (human, UniProt Q9GZQ8 1-120, K49A). The test is described as above.
The target in test [2] is T1, LC3B wild type (for ITC and NMR). Briefly: ITC; rows marked WT*: previous set of conditions reported by Novak et al.: 50 mM NaPi, 150 mM NaCl, pH 7.5.
In test [3] the target is LC3B wild type (for ITC and NMR) (human, UniProt Q9GZQ8 1-120). Briefly: ITC; 25 °C, VP-ITC; peptides 0.31 mM titrated into 0.018 mM LC3B proteins in 25 steps; 40 mM Na2HPO4, 80 mM NaCl, pH 7.0; one-site binding model. The source holds these as a separate data set.

Consider RPEEQMESDNCSGGDDDWTHLS [p62 LIR peptide], for which the Ka with LC3B R11A (for ITC) worked out at 233000 M⁻¹; in test [1] it was 498000 M⁻¹; with LC3B K51A (for ITC), 34000 M⁻¹; with LC3B K49A (for ITC) it was 1.02e+06 M⁻¹; in test [2] it was 680000 M⁻¹. Also, the equilibrium dissociation constant (Kd) was found to be 4.29 µM with LC3B R11A (for ITC); 2.01 µM in test [1]; 29 µM in the test with LC3B K51A (for ITC); 0.98 µM with LC3B K49A (for ITC); 1.47 µM in test [2]. For the same molecule, the dH with LC3B R11A (for ITC) was -8.22 ± 0.23 kcal/mol; in test [1], -9.38 ± 0.17 kcal/mol; with LC3B K51A (for ITC), -4.7 ± 0.01 kcal/mol; with LC3B K49A (for ITC) it was -10.84 ± 0.01 kcal/mol; in test [2], -10.5 ± 0.13 kcal/mol. Moreover, the “stoichiometry N” value with LC3B R11A (for ITC) amounted to 1.06 ± 0.02; in test [1], 1.04 ± 0.01; with LC3B K49A (for ITC), 0.99 ± 0.01; in test [2], 0.99 ± 0.01.

B1: Nix LIR P0 peptide (unphosphorylated) (peptide)
peptide: AGLNSSWVELPMNSSNG
notes: Nix LIR motif peptide without phosphorylation of Ser34 and Ser35; also called non-phosphorylated P0 peptide; source: synthetic peptide, bought: GenScript USA Inc, 95% pure
B1 yielded a dissociation constant Kd in test [3] of 99 µM.
